In one assay the target is HLA-A*30:02. The experiment in a line: IEDB peptide-MHC binding, purified MHC/competitive/radioactivity; filed as Kd, often an IC50 or EC50 that approximates it; ≥ and ≤ were set here for values at or beyond the usual limits of such assays.
Assay [1] concerns the target HLA-A*02:01. The experiment in a line: IEDB peptide-MHC binding, purified MHC/competitive/fluorescence; filed as Kd, often an IC50 or EC50 that approximates it; ≥ and ≤ were set here for values at or beyond the usual limits of such assays.
Another assay addresses HLA-A*02:03. The experiment in a line: IEDB peptide-MHC binding, purified MHC/competitive/radioactivity; filed as Kd, often an IC50 or EC50 that approximates it; ≥ and ≤ were set here for values at or beyond the usual limits of such assays.
For another assay, the target named is HLA-A*02:06. Described as above.
In a further assay the target is HLA-A*02:02. Described as above.
The target in another assay is HLA-A*69:01. The experiment in a line: IEDB peptide-MHC binding, purified MHC/direct/fluorescence; filed as Kd, often an IC50 or EC50 that approximates it; ≥ and ≤ were set here for values at or beyond the usual limits of such assays.
For assay [2], the target named is HLA-A*02:01. The assay is described as above.
A further assay deals with HLA-B*51:01. Briefly: IEDB peptide-MHC binding, purified MHC/competitive/radioactivity; filed as Kd, often an IC50 or EC50 that approximates it; ≥ and ≤ were set here for values at or beyond the usual limits of such assays.
The target of another assay is HLA-B*53:01. The assay is described as above.
The next assay addresses HLA-B*15:01. The experiment in a line: IEDB peptide-MHC binding, purified MHC/direct/fluorescence; filed as Kd, often an IC50 or EC50 that approximates it; ≥ and ≤ were set here for values at or beyond the usual limits of such assays. The note with it: source organism: Pseudomonas aeruginosa.
Another assay has as its target HLA-B*58:01. Described as above.
The target of another assay is HLA-B*07:02. The assay is described as above.
For another assay, the target named is HLA-A*11:01. Described as above. The settings on record: source organism: West Nile virus.
A further assay deals with HLA-A*03:01. The description is as above. The note with it: source organism: Giardia lamblia ATCC 50803.
Where [3] appears, read: source organism: Dengue virus 3 Martinique/1243/1999.
[4] abbreviates: source organism: Vaccinia virus WR.
Setting [5] is: source organism: Burkholderia pseudomallei.
Setting [6] is: source organism: Dengue virus 2 Jamaica/1409/1983.
The mark [7] stands for this setting: source organism: Dengue virus 4 Philippines/H241/1956.
Where [8] appears, read: source organism: Dengue virus 1 Brazil/97-11/1997.
Setting [9] is: source organism: SARS coronavirus Tor2.
The mark [10] stands for this setting: source organism: Pseudomonas aeruginosa.
[11] abbreviates: source organism: Human immunodeficiency virus 1.
Setting [12] is: source organism: Mammarenavirus juninense.

Where only a bound is given, the exact number is not on record here.

The term Kd denotes the equilibrium constant for the complex coming apart. As to GCGRGGWSYY, the Kd with HLA-A*30:02 (setting [3]) worked out at 0.00943 µM.

IMLKANFSV returned a Kd in the assay with HLA-A*02:01 [1] (source organism: Influenza A virus (A/Hokkaido/20/89(H3N2))) of 0.0003 µM.

Consider KILSDENYL, for which the Kd with HLA-A*02:03 (setting [4]) stood at 1.17 µM; in the assay with HLA-A*02:06 (setting [4]), 0.0276 µM; in the assay with HLA-A*02:02 (setting [4]), 0.196 µM.

For the sequence DAAVVFPPV, the dissociation constant (Kd) with HLA-A*69:01 (setting [5]) is 0.0004 µM; with HLA-A*02:01 [2] (setting [5]), at least 20 µM.

Consider FKLTYQNKVV, for which the Kd with HLA-B*51:01 (setting [6]) is at least 60 µM.

For YLSKEDRIIT, the results for the Kd in the assay with HLA-A*02:03 (setting [4]), with HLA-A*02:06 (setting [4]) and in the assay with HLA-A*02:02 (setting [4]) were 5.57 µM, at least 49 µM and 1.3 µM, respectively.

With RFLGEDGCWY, the Kd in the assay with HLA-A*30:02 (setting [7]) was determined as 0.0263 µM.

With IMTSTRTIIL, the results for the Kd with HLA-A*02:03 (setting [4]), with HLA-A*02:06 (setting [4]) and with HLA-A*02:02 (setting [4]) were 0.0525 µM, 0.438 µM and 1.02 µM, respectively.

Consider FGCKPLTMFL, for which, in the assay with HLA-B*51:01 (setting [8]), the Kd is at least 35.1 µM.

With VMGITAEWLW, the Kd in the assay with HLA-B*53:01 (setting [3]) was 0.0399 µM.

Consider NIKISLNEIL, for which the figures for the Kd with HLA-A*02:03 (setting [4]), with HLA-A*02:06 (setting [4]) and with HLA-A*02:02 (setting [4]) were 1.39 µM, 0.557 µM and 0.705 µM, respectively.

Regarding HLENDKIEDL, the results for the Kd with HLA-A*02:03 (setting [4]), in the assay with HLA-A*02:06 (setting [4]) and with HLA-A*02:02 (setting [4]) were 0.414 µM, 10.6 µM and 0.526 µM, respectively.

For RNQNKEGDQY, in the assay with HLA-A*30:02 (setting [8]), the Kd turned out to be 0.12 µM.

For YALCTLLHL, the Kd with HLA-A*02:03 (setting [9]) came out at 0.768 µM; with HLA-A*02:06 (setting [9]), 0.00153 µM; with HLA-A*02:02 (setting [9]), 1.33 µM.

YTTMFGGVSW: the Kd in the assay with HLA-B*53:01 (setting [7]) stood at 0.119 µM.

IWLKLREVY: the Kd in the assay with HLA-A*30:02 (setting [3]) was at least 76.9 µM.

Take KAMHDKKIDI: the figures for the Kd with HLA-A*02:03 (setting [4]), with HLA-A*02:06 (setting [4]) and in the assay with HLA-A*02:02 (setting [4]) were at least 46.2 µM, at least 26.4 µM and at least 70 µM, respectively.

For DMICCDSRIV, the Kd with HLA-A*02:03 (setting [4]) was found to be 6.08 µM; in the assay with HLA-A*02:06 (setting [4]), 18.9 µM; in the assay with HLA-A*02:02 (setting [4]) it was 11.3 µM.

As to ILGRYLPEF, the Kd with HLA-A*69:01 (setting [10]) was found to be 18.1 µM; in the assay with HLA-A*02:01 [2] (setting [10]), 4.13 µM; with HLA-B*15:01, 0.15 µM; with HLA-B*58:01 (setting [10]), 0.146 µM.

Consider LISILMIFI, for which the results for the Kd in the assay with HLA-A*02:03 (setting [4]), with HLA-A*02:06 (setting [4]) and in the assay with HLA-A*02:02 (setting [4]) were at least 5 µM, 7.04 µM and 2.37 µM, respectively.

As to KQNKFGDSPL, the Kd with HLA-A*02:03 (setting [4]) worked out at 0.216 µM; with HLA-A*02:06 (setting [4]), 5.08 µM; with HLA-A*02:02 (setting [4]), 0.0896 µM.

In the case of TTELNIVDEI, the Kd in the assay with HLA-A*02:03 (setting [4]) was at least 70.4 µM; with HLA-A*02:06 (setting [4]), at least 21.4 µM; in the assay with HLA-A*02:02 (setting [4]), at least 38.7 µM.

Take YVHSLLYSSM: the Kd in the assay with HLA-A*02:03 (setting [4]) was 6.71 µM; with HLA-A*02:06 (setting [4]) it was 2.25 µM; with HLA-A*02:02 (setting [4]) it was 2.2 µM.

Take ATPQDLNTM: the Kd with HLA-A*02:01 [2] (setting [11]) was at least 28.8 µM; in the assay with HLA-B*07:02 (setting [11]), 11.2 µM.

Consider DVNSVQFSIL, for which the Kd in the assay with HLA-A*02:03 (setting [4]) is 1.66 µM; in the assay with HLA-A*02:06 (setting [4]), 3.4 µM; with HLA-A*02:02 (setting [4]), 2.27 µM.

The sequence KLTFLDVEV had a Kd in the assay with HLA-A*02:01 [1] (source organism: Variola virus) of 0.0101 µM.

Take YPAEITLTW: the Kd with HLA-B*07:02 (source organism: Homo sapiens) stood at 0.147 µM; in the assay with HLA-B*58:01 (source organism: Homo sapiens), 0.055 µM.

For the sequence VLSLIGLKR, the Kd with HLA-A*11:01 was at least 20 µM.

Turning to IMKQAASMK, in the assay with HLA-A*03:01, the Kd came to 0.0635 µM.

On to CAIILGGLTW, for which the Kd with HLA-B*53:01 (setting [7]) amounted to 0.549 µM.

As for FLTNKLLLFA, the Kd with HLA-A*02:03 (setting [9]) stood at 0.00141 µM; with HLA-A*02:06 (setting [9]) it was 0.00747 µM; with HLA-A*02:02 (setting [9]) it was 0.000417 µM.

With PPTAGILKRW, the Kd with HLA-B*53:01 (setting [6]) came to 3.27 µM.

Take TSLGLLYTV: the results for the Kd with HLA-A*02:03 (setting [12]), in the assay with HLA-A*02:06 (setting [12]) and in the assay with HLA-A*02:02 (setting [12]) were 0.405 µM, 0.00417 µM and 0.933 µM, respectively.

The values above are taken from the Immune Epitope Database (IEDB).
